Source: paper PMC5012860, “Hemi-methylated DNA regulates DNA methylation inheritance through allosteric activation of H3 ubiquitylation by UHRF1” (eLife, 2016)
Residue numbers refer to the chain shown, from its start.

Key:
[1] = target: T1, MBP-SRA-RING DNA^mut (G448D) (human, UniProt Q96T88 405-793, G448D); assay: pull-down; as a2 with SRA-RING DNA^mut in the presence of 5 uM DNA; conditions: both partners purified
T1 construct: human UHRF1 SRA-RING, amino acids 405-793, with G448D (DNA^mut); source: E. coli, purified as described for UHRF1
T1 sequence (looked up): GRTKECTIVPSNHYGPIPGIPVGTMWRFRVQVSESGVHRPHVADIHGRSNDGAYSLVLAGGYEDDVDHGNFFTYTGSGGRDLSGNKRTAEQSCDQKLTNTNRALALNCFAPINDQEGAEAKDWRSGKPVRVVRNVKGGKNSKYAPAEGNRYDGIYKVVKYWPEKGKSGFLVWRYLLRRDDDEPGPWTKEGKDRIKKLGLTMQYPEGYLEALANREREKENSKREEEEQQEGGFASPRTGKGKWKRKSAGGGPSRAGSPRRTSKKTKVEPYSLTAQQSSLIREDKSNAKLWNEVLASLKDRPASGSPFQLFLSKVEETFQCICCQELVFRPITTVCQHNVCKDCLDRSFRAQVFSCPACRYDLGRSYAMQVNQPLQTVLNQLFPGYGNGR

[2] = target: T2, His-MBP-tagged UHRF1 SRA-RING (amino acids 405-793) (human, UniProt Q96T88 405-793); assay: pull-down; proteins each at 1 uM incubated overnight at 4 C with MBP magnetic beads in 50 mM Tris-HCl pH 8.0, 100 mM NaCl, 0.1% NP-40, 0.5% BSA; blot with GST antibody; also done with 25 uM H3_(1-20)K9me2 peptide, which did not inhibit; conditions: both partners purified
T2 construct: human UHRF1 SRA-RING, amino acids 405-793; also called MBP-SRA-RING; source: E. coli, purified as described for UHRF1
T2 sequence (looked up): T1 sequence (looked up) with D44G

binding result [1]: binds
binding result [2]: binds
B1: GST-tagged UHRF1 TTD-PHD (amino acids 123-366) (domain or fragment, human, UniProt Q96T88 123-366, looked up)
chain: DEDMWDETELGLYKVNEYVDARDTNMGAWFEAQVVRVTRKAPSRDEPCSSTSRPALEEDVIYHVKYDDYPENGVVQMNSRDVRARARTIIKWQDLEVGQVVMLNYNPDNPKERGFWYDAEISRKRETRTARELYANVVLGDDSLNDCRIIFVDEVFKIERPGEGSPMVDNPMRRKSGPSCKHCKDDVNRLCRVCACHLCGGRQDPDKQLMCDECDMAFHIYCLDPPLSSVPSEDEWYCPECRND
notes: human UHRF1 linked tandem Tudor domain and plant homeodomain (TTD-PHD), amino acids 123-366; also called GST-TTD-PHD; source: produced as previously described (Rothbart et al., 2013)
